Biological target: Leptospira interrogans triosephosphate isomerase (Leptospira interrogans)
Test: SEC

stoichiometry N: 2
Substance: Leptospira interrogans triosephosphate isomerase (enzyme)
